Reference: patent US20220259322A1 (WASHINGTON UNIVERSITY, published 2022)

T1: peptide 89
T1 construct: 12-mer from the C-terminus of GRP78
T1 peptide: LYGSAGPPPTGE

T2: peptide 90
T2 construct: 12-mer from the C-terminus of GRP78
T2 peptide: PPTGEEDTAEKD

T3: peptide 86
T3 construct: 12-mer from the C-terminus of GRP78
T3 peptide: IEDFKAKKKELE

T4: peptide 87
T4 construct: 12-mer from the C-terminus of GRP78
T4 peptide: KKELEEIVQPII

T5: peptide 88
T5 construct: 12-mer from the C-terminus of GRP78
T5 peptide: VQPIISKLYGSA

B1: 6F8 anti-GRP78 mouse monoclonal antibody (antibody, V domains shown)
VH: EVQLVESGGGLVRPKGSLKLSCAASGFTLNTSAMNWVRQVPGKGLEWVGRIRSKNYNYATYYADSVKDRFTIFRDDSQNMLYLQMNNLKTEDTAMYYCVRPPGFAYWGQGTLVTVSA
VL: DIQMTQSPSSLSASLGERVSLTCRTSQEISGHLSWLQQKPDGTIKRLIYAASSLDSGVPKRFSGSRSGSDYSLTISSLESEDFADYYCLQYSSYPYTFGGGTKLEIK
B2: 7A9 anti-GRP78 mouse monoclonal antibody (antibody, V domains shown)
VH: EVQLVETGGGLVQPKGSLKLSCAVSGITFNINAMNWVRQAPGKGLEWVARIRSKSNNYATYYADSVKDRFTISRDDSQSMLYLQMNNLKTEDTAMYYCVRDITRAGYFDVWGAGTTVTVSS
VL: QIVLTQSPAIMSASPGEKVTITCSASSSVIYMHWFQQKPGTSPKLWIYSTSNLASGVPARFSGSGSGTSYSLTISRMEAEDAATYYCQQRSSYPLTFGAGTKLELK

Experiments:
C-terminal GRP78 peptide = target: T6, C-terminal GRP78 peptide; assay: ELISA on C-terminal GRP78 peptide
T6 construct: name from the legend, the sheet prints only 'GRP78 Hybridoma ELISA'
T6 sequence (P11021 other isoform, or with tags, fused parts or gaps): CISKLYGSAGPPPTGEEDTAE

[1] = target: T7, 78-kDa glucose-regulated protein (GRP78) (UniProt P11021 19-654); assay: flow cytometry, A549 cells, gMFI minus secondary only, 4PL fit
T7 construct: 'peptides 86-90' in Biacore; also called BiP; HSP5a
T7 sequence (P11021 19-654 limits assumed): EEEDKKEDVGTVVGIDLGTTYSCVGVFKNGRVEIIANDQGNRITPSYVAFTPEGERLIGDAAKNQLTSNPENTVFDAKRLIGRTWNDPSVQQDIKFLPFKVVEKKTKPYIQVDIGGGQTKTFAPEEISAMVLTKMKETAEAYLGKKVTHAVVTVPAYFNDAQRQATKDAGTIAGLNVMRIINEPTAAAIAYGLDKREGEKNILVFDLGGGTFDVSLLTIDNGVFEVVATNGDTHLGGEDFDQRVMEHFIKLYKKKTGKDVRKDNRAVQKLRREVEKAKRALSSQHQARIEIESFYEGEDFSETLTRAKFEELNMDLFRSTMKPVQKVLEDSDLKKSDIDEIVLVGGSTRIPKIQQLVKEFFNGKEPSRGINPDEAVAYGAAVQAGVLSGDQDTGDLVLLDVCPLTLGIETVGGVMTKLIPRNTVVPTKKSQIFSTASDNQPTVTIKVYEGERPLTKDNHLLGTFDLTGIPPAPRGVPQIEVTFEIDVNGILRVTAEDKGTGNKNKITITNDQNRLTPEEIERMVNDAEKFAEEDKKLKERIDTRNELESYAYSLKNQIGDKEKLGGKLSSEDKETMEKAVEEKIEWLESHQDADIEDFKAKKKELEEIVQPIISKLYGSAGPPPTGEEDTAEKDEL
Procedure: (§1) FIG. 7A-7B show graphs of flowcytometry data for the cell surface binding of GRP78 antibodies. […] Binding conditions: 0.1×10⁶ cells incubated with 3-fold dilutions of antibody started at 2.22 μM. Cells were washed 2× with FACS buffer. Stained with secondary antibody. Washed twice and analyzed in FACS buffer by flow cytometer FACS Canto II (BD). Geometric mean fluorescence intensity was fitted using the “One site-specific binding” in Graphpad Prism software.
(§2) A Flow cytometry assay for cell surface binding of 6F8 antibody to A549 cells was done (FIG. 7A-7B). Binding conditions: 0.1×10⁶ cells incubated with 3-fold dilutions of antibody started at 2.22 μM. Cells were washed 2× with FACS buffer. Stained with secondary antibody. Washed twice and analyzed in FACS buffer by flow cytometer FACS Canto II (BD). Geometric mean fluorescence intensity was fitted using the “One site-specific binding” in Graphpad Prism software. Graph showing the same data as in A fitted using the “Sigmoidal, 4PL, X is log(concentration)” in Graphpad Prism software (FIG. 7B).

[2] = target: T7, 78-kDa glucose-regulated protein (GRP78); assay: flow cytometry, H460 cells, gMFI minus secondary only, 4PL fit
Procedure: FIG. 9A-9B are graphs showing the cell surface binding of 6F8 to H460 cells. […] Binding conditions: 0.1×10^6 cells incubated with 3-fold dilutions of antibody started at 0.7 μM. Cells were washed 2× with FACS buffer. Stained with secondary antibody. Washed twice and analyzed in FACS buffer by flow cytometer FACS Canto II (BD). […]

peptide 89 [3] = target: T1, peptide 89; assay: Biacore T200, 6F8 immobilized on CM5 chip, peptide as analyte, blank-subtracted relative response
Procedure: (§3) FIG. 5A-5B show the epitope mapping of 6F8 antibody. FIG. 5A depicts a graph of the relative response binding. Epitope mapping was performed using Biacore T200. 6F8 was immobilized on the CM5 sensor chip and peptides 86-90 (overlapping peptides in the immunogen region of 6F8) were passed as analyte. Relative binding response (response on blank channel subtracted from the 6F8 immobilized channel) of each peptide to 6F8 was analyzed using the BIAevaluation software. Cut-off for nonbinding peptides is 0 RU. […] The figure was generated using Pymol software (SEQ ID NO: 71).
(§4) Seven peptides were synthesized from the c-terminus of GRP78. Each peptide was a 12-mer with 5 amino acid overlap. The sequences of the peptides are shown above. Each of the peptide was coated in duplicate on nitrocellulose membrane and incubated with 7A9 antibody. After washing, the blot was developed using chemiluminescence. The arrows indicate positive spot, FIG. 4. 7A9 epitope: SEQ ID NO: 70 ([…] . . . EDTAE). FIG. 5A-5B Epitope mapping of 6F8 antibody was performed using Biacore T200. 6F8 was immobilized on the CM5 sensor chip and peptides 86-90 (overlapping peptides in the immunogen region of 6F8) were passed as analyte. Relative binding response (response on blank channel subtracted from the 6F8 immobilized channel) of each peptide to 6F8 was analyzed using the BIAevaluation software. Cut-off for nonbinding peptides is 0 RU. Three-dimensional model of GRP78 protein indicating the epitope sequence on the protein in magenta color. The figure was generated using Pymol software.

peptide 90 [4] = target: T2, peptide 90; assay: as above
Procedure: as §3, §4

peptide 86 [5] = target: T3, peptide 86; assay: as above
Procedure: as §3, §4

peptide 87 [6] = target: T4, peptide 87; assay: as above
Procedure: as §3, §4

peptide 88 = target: T5, peptide 88; assay: as above
Procedure: as §3, §4

[7] = target: T7, 78-kDa glucose-regulated protein (GRP78); assay: flow cytometry, A549 cells, gMFI minus secondary only, one site-specific binding fit; no unit beside the number, x axis in nM
Procedure: as §1, §2

[8] = target: T7, 78-kDa glucose-regulated protein (GRP78); assay: flow cytometry, H460 cells, gMFI minus secondary only, one site-specific binding fit; no unit beside the number, x axis in nM
Procedure: FIG. 9A-9B are graphs showing the cell surface binding of 6F8 to H460 cells. […] Binding conditions: 0.1×10^6 cells incubated with 3-fold dilutions of antibody started at 0.7 μM. Cells were washed 2× with FACS buffer. Stained with secondary antibody. Washed twice and analyzed in FACS buffer by flow cytometer FACS Canto II (BD). Geometric mean fluorescence intensity was fitted using the One site-specific binding in Graphpad Prism software.

peptide 90 [9] = target: T2, peptide 90; assay: peptide dot blot on nitrocellulose, chemiluminescence
Procedure: Seven peptides were synthesized from the c-terminus of GRP78. Each peptide was a 12-mer with 5 amino acid overlap. Each of the peptide was coated in duplicate on nitrocellulose membrane and incubated with 7A9 antibody. After washing, the blot was developed using chemiluminescence. The arrows indicate positive spot.
as §4

peptide 89 [10] = target: T1, peptide 89; assay: Biacore T200, 7A9 immobilized on CM5 chip, peptide as analyte, blank-subtracted relative response
Procedure: as §3, with “6A” for “5A-5B show the epitope mapping of 6F8 antibody. FIG. 5A”, “binding of 7A9.” for “binding.”, “7A9” for “6F8”, “7A9)” for “6F8)”, “70).” for “71).”
(§5) FIG. 6A-6B Epitope mapping of 7A9 antibody was performed using Biacore T200. 7A9 was immobilized on the CM5 sensor chip and peptides 86-90 (overlapping peptides in the immunogen region of 7A9) were passed as analyte. Relative binding response (response on blank channel subtracted from the 7A9 immobilized channel) of each peptide to 7A9 was analyzed using the BIAevaluation software. Cut-off for nonbinding peptides is 0 RU. Three-dimensional model of GRP78 protein indicating the epitope sequence on the protein in red color. The figure was generated using Pymol software.

peptide 86 [11] = target: T3, peptide 86; assay: as above
Procedure: as §3, with “6A” for “5A-5B show the epitope mapping of 6F8 antibody. FIG. 5A”, “binding of 7A9.” for “binding.”, “7A9” for “6F8”, “7A9)” for “6F8)”, “70).” for “71).”
as §5

peptide 87 [12] = target: T4, peptide 87; assay: as above
Procedure: as §3, with “6A” for “5A-5B show the epitope mapping of 6F8 antibody. FIG. 5A”, “binding of 7A9.” for “binding.”, “7A9” for “6F8”, “7A9)” for “6F8)”, “70).” for “71).”
as §5

[13] = target: T7, 78-kDa glucose-regulated protein (GRP78); assay: flow cytometry, H460 cells, gMFI, 4PL fit; x axis of panel B is printed 'Log10 [6F8] nM' although title and legend say 7A9
Procedure: FIG. 11A-11B show flow cytometry for cell surface binding of 7A9 antibody to H460 cells. FIG. 11A is the flow cytometry assay for cell surface binding of 7A9 antibody to H460 cells. Binding conditions: 0.1×10⁶ cells incubated with 3-fold dilutions of antibody started at 1.0 μM. Cells were washed 2× with FACS buffer. Stained with secondary antibody. Washed twice and analyzed in FACS buffer by flow cytometer FACS Canto II (BD). […]

[14] = target: T7, 78-kDa glucose-regulated protein (GRP78); assay: flow cytometry, H460 cells, gMFI, one site-specific binding fit; no unit beside the number, x axis in nM; all points lie at gMFI about 1000-1400, so the fit rests on no point of the rising part
Procedure: FIG. 11A-11B show flow cytometry for cell surface binding of 7A9 antibody to H460 cells. FIG. 11A is the flow cytometry assay for cell surface binding of 7A9 antibody to H460 cells. Binding conditions: 0.1×10⁶ cells incubated with 3-fold dilutions of antibody started at 1.0 μM. Cells were washed 2× with FACS buffer. Stained with secondary antibody. Washed twice and analyzed in FACS buffer by flow cytometer FACS Canto II (BD). Geometric mean fluorescence intensity was fitted using the One site-specific binding in Graphpad Prism software.

Row | Binder | EC50 (read off the curve) (C-terminal GRP78 peptide) [nM] | EC50 (read off the curve) [1] [nM] | EC50 (read off the curve) [2] [nM] | binding result (peptide 89 [3]) | binding result (peptide 90 [4]) | binding result (peptide 86 [5]) | binding result (peptide 87 [6]) | binding result (peptide 88) | Kd [7] [nM] | Kd [8] [nM] | binding result (peptide 90 [9]) | binding result (peptide 89 [10]) | binding result (peptide 86 [11]) | binding result (peptide 87 [12]) | EC50 (read off the curve) [13] [nM] | Kd [14] [nM]
1 | B1 | ~1000 | ~50 | ~100 | no binding | binds | no binding | no binding | no binding | 16.4 | 35.8 |  |  |  |  |  | 
2 | B2 |  |  |  |  |  |  |  |  |  |  | binds | no binding | no binding | no binding | ~40 | 0.108
